The results in this text go back to US20250002564A1 (HOSPITAL FOR SICK CHILDREN, published 2025).

Assay in all cases: cell-based or functional assay
Test [1] addresses T1, SARS-CoV-2 Spike on wild-type pseudotyped virus (PsV) (SARS-CoV-2, UniProt P0DTC2 14-1273).
Test [2] has as its target T1, SARS-CoV-2 Spike on wild-type …. The source holds these as a separate data set.
Test [3] deals with Spike of authentic SARS-CoV-2/SB2-P4-PB virus (SARS-CoV-2, UniProt P0DTC2 14-1273).

Several values for one entry are separate records, joined by “and”; a condition that tells them apart may be missing. Equal values may be shown once.

B1: mAb 192 (antibody, V domains shown)
VH: QVQLVQSGAEVKKPGSSVKVSCKASGGTFSSYAISWVRQAPGQGLEWMGWINPNSGGANYAQKFQGRVTITADESTSTAYMELSSLRSEDTAVYYCSTYYYDSSGYSTDYWGQGTLVTVSS
VL: DIVMTQSPLSLPVTPGEPASISCRSSQSLLHSNGYNYLDWYLQKPGQSPQLLIYAASSLQSGVPDRFSGSGSGTDFTLKISRVEAEDVGVYYCMQALQTPYTFGQGTKLEIKR
As to B1, in test [1], the “IC50 SARS-CoV2 PsV (IgG)” value was above 50 µg/mL. Also, in test [2], the “Median IC50” value is > 50 µg/mL and > 333 nM.

B2: mAb 180 (antibody, V domains shown)
VH: QVQLVQSGAEVKKPGSSVKVSCKASGYTFTSYAMHWVRQAPGQGLEWMGRISPRSGGTKYAQRFQGRVTITADESTSTAYMELSSLRSEDTAVYYCAREAVAGTHPQAGDFDLWGRGTLVTVSS
VL: DIVMTQSPLSLPVTPGEPASISCRSSQSLLHSNGYNYLDWYLQKPGQSPQLLIYAASSLQSGVPDRFSGSGSGTDFTLKISRVEAEDVGVYYCQQYYSSPYTFGQGTKLEIKR
As to B2, the “IC50 SARS-CoV2 PsV (IgG)” value in test [1] was above 50 µg/mL. Moreover, the “Median IC50” value in test [2] is > 50 µg/mL and > 333 nM.

B3: mAb 128 (antibody, V domains shown)
VH: QVQLVQSGAEVKKPGASVKVSCKASGYTFTHYYMHWVRQAPGQGLEWMGIINPSSSSASYSQKFQGRVTMTRDTSTSTVYMELSSLRSEDTAVYYCARDGRYGSGSYPFDYWGQGTLVTVSS
VL: DIQMTQSPSSLSASVGDRVTITCRASQNISRYLNWYQQKPGKAPKLLIYDASNLETGVPSRFSGSGSGTDFTLTISSLQPEDFATYYCQQANGFPPTFGQGTKLEIKR
For B3, in test [1], the “IC50 SARS-CoV2 PsV (IgG)” value is above 50 µg/mL. The “Median IC50” value in test [2] was > 50 µg/mL and > 333 nM.

B4: mAb 82 (antibody, V domains shown)
VH: QVQLVQSGAEVKKPGASVKVSCKASGGSFSTSAFYWVRQAPGQGLEWMGWINPYTGGTNYAQKFQGRVTMTRDTSTSTVYMELSSLRSEDTAVYYCARSRALYGSGSYFDYWGQGTLVTVSS
VL: DIQMTQSPSSLSASVGDRVTITCRASQVISNYLAWYQQKPGKAPKLLIYDASNLETGVPSRFSGSGSGTDFTLTISSLQPEDFATYYCQQSFSPPPTFGQGTRLEIKR
notes: also called IgG 82; Antibody 82
On to B4, for which the “IC50 SARS-CoV2 PsV (IgG)” value in test [1] amounted to 1.6 µg/mL. The “Median IC50” value in test [2] was 1.6 µg/mL and 11 nM.

B5: mAb 158 (antibody, V domains shown)
VH: QVQLVQSGAEVKKPGASVKVSCKASGYTFTGYYMHWVRQAPGQGLEWMGWINPLNGGTNFAPKFQGRVTMTRDTSTSTVYMELSSLRSEDTAVYYCARDPGGSYSNDAFDIWGQGTLVTVSS
VL: DIQMTQSPSSLSASVGDRVTITCRASQSISRYLNWYQQKPGKAPKLLIYDASNLESGVPSRFSGSGSGTDFTLTISSLQPEDFATYYCQQANSFPLTFGGGTKVDIKR
notes: also called IgG 158; Antibody 158
As to B5, the “IC50 SARS-CoV2 PsV (IgG)” value in test [1] is above 50 µg/mL. Also, the “Median IC50” value in test [2] was > 50 µg/mL and > 333 nM.

B6: mAb 56 (antibody, V domains shown)
VH: QVQLVQSGAEVKKPGASVKVSCKASGYTFTSYGISWVRQAPGQGLEWMGWISAYNGNTNYAQKLQGRVTMTRDTSTSTVYMELSSLRSEDTAVYYCARDIGPIDYWGQGTLVTVSS
VL: DIQMTQSPSSLSASVGDRVTITCRASQGISSYLAWYQQKPGKAPKLLIYDASNLQSGVPSRFSGSGSGTDFTLTISSLQPEDFATYYCQQANSFPSTFGQGTKVEIKR
notes: also called IgG 56; Antibody 56
Consider B6, for which the “IC50 SARS-CoV2 PsV (IgG)” value in test [1] is above 50 µg/mL. The “Median IC50” value in test [2] was > 50 µg/mL and > 333 nM.

B7: mAb 64 (antibody, V domains shown)
VH: EVQLLESGGGLVQPGGSLRLSCAASGFPFSQHGMHWVRQAPGKGLEWVSAIDRSGSYIYYADSVKGRFTISRDNSKNTLYLQMNSLRAEDTAVYYCARDTYGGKVTYFDYWGQGTLVTVSS
VL: DIQMTQSPSSLSASVGDRVTITCRASQGISSHLAWYQQKPGKAPKLLIYDASNLETGVPSRFSGSGSGTDFTLTISSLQPEDFATYYCQQTYSTPWTFGQGTKVEIKR
notes: also called IgG 64; Antibody 64
For B7, in test [1], the “IC50 SARS-CoV2 PsV (IgG)” value was above 50 µg/mL. In test [2], the “Median IC50” value is > 50 µg/mL and > 333 nM.

B8: mAb 324 (antibody, V domains shown)
VH: QVQLVQSGAEVKKPGASVKVSCKASGGTFNNYGISWVRQAPGQGLEWMGWMNPNSGNTGYAQKFQGRVTMTRDTSTSTVYMELSSLRSEDTAVYYCARVGDYGDYIVSPFDLWGRGTLVTVSS
VL: DIQMTQSPSSLSASVGDRVTITCRASQSITTYLNWYQQKPGKAPKLLIYDASNLETGVPSRFSGSGSGTDFTLTISSLQPEDFATYYCQQSYSTPPTFGQGTKVEIKR
notes: also called IgG 324; Antibody 324
Regarding B8, in test [3], the “IC50 SARS-CoV2/SB2-P4-PB (IgG)” value is 21 µg/mL. Further, the “IC50 SARS-CoV2 PsV (IgG)” value in test [1] turned out to be 0.78 µg/mL. For the same molecule, the “Median IC50” value in test [2] was 0.78 µg/mL and 5.2 nM.

B9: mAb 349 (antibody, V domains shown)
VH: EVQLLESGGGLVQPGGSLRLSCAASGFTFSNYGMHWVRQAPGKGLEWVSGISSAGSITNYADSVKGRFTISRDNSKNTLYLQMNSLRAEDTAVYYCAGNHAGTTVTSEYFQHWGQGTLVTVSS
VL: DIQMTQSPSSLSASVGDRVTITCRASQSISSWLAWYQQKPGKAPKLLIYDTSNLETGVPSRFSGSGSGTDFTLTISSLQPEDFATYYCQQSYTTPWTFGQGTRLEIKR
notes: also called IgG 349; Antibody 349
As to B9, the “IC50 SARS-CoV2 PsV (IgG)” value in test [1] is above 50 µg/mL. Further, the “Median IC50” value in test [2] was > 50 µg/mL and > 333 nM.

B10: mAb 160 (antibody, V domains shown)
VH: QVQLVQSGAEVKKPGASVKVSCKASGYTFTGHDMHWVRQAPGQGLEWMGIINPSGGSTSYAQKFQGRVTMTRDTSTSTVYMELSSLRSEDTAVYYCARANSLRYYYGMDVWGQGTMVTVSS
VL: DIQMTQSPSSLSASVGDRVTITCRASQSVSSWLAWYQQKPGKAPKLLIYAASSLQSGVPSRFSGSGSGTDFTLTISSLQPEDFATYYCQQGYTTPYTFGQGTKLEIKR
notes: also called IgG 160; Antibody 160
B10: the “IC50 SARS-CoV2 PsV (IgG)” value in test [1] was above 50 µg/mL. Also, the “Median IC50” value in test [2] is > 50 µg/mL and > 333 nM.

B11: mAb 46 (antibody, V domains shown)
VH: EVQLLESGGGLVQPGRSLRLSCAASGFTFSSYAMSWVRQAPGKGLEWVSTIYSGGSTYYADSVKGRFTISRDNSKNTLYLQMNSLRAEDTAVYYCARGDSRDAFDIWGQGTMVTVSS
VL: DIQMTQSPSSLSASVGDRVTITCRASQSISSWLAWYQQKPGKAPKLLIYDASNLETGVPSRFSGSGSGTDFTLTISSLQPEDFATYYCQQSYSTPFTFGPGTKVDIKR
notes: also called IgG 46; Antibody 46
For B11, the “IC50 SARS-CoV2/SB2-P4-PB (IgG)” value in test [3] was 19 µg/mL. Moreover, the “IC50 SARS-CoV2 PsV (IgG)” value in test [1] worked out at 2.1 µg/mL. Further, the “Median IC50” value in test [2] is 2.1 µg/mL and 14 nM.

B12: mAb 108 (antibody, V domains shown)
VH: QVQLVQSGAEVKKPGASVKVSCKASGYIFSRYAIHWVRQAPGQGLEWMGWMNPISGNTDYAPNFQGRVTMTRDTSTSTVYMELSSLRSEDTAVYYCAKDGSQLAYLVEYFQHWGQGTLVTVSS
VL: DIQMTQSPSSLSASVGDRVTITCRASQVITNNLAWYQQKPGKAPKLLIYDASTLETGVPSRFSGSGSGTDFTLTISSLQPEDFATYYCQQSYTFPYTFGQGTKVEIKR
Take B12: in test [1], the “IC50 SARS-CoV2 PsV (IgG)” value was above 50 µg/mL. The “Median IC50” value in test [2] was > 50 µg/mL and > 333 nM.

B13: mAb 236 (antibody, V domains shown)
VH: QVQLVQSGAEVKKPGASVKVSCKASGGTFTSYGINWVRQAPGQGLEWMGWMNPNSGNTGYAQKFQGRVTMTRDTSTSTVYMELSSLRSEDTAVYYCASRGIQLLPRGMDVWGQGTTVTVSS
VL: not shown
notes: also called IgG 236; Antibody 236
As to B13, the “IC50 SARS-CoV2/SB2-P4-PB (IgG)” value in test [3] came out at 5.5 µg/mL. In test [1], the “IC50 SARS-CoV2 PsV (IgG)” value amounted to 0.057 µg/mL. For the same molecule, in test [2], the “Median IC50” value was 0.057 µg/mL and 0.38 nM.

B14: mAb 254 (antibody, V domains shown)
VH: EVQLLESGGGLVQPGGSLRLSCAASGFTFSSSAMHWVRQAPGKGLEWVSAIGTGGDTYYADSVKGRFTISRDNSKNTLYLQMNSLRAEDTAVYYCAREGDGYNFYFDYWGQGTLVTVSS
VL: DIQMTQSPSSLSASVGDRVTITCRASQGISSYLAWYQQKPGKAPKLLIYDASSLQIGVPSRFSGSGSGTDFTLTISSLQPEDFATYYCLQSYSTPPWTFGQGTKVEIKR
notes: also called IgG 254; Antibody 254
As for B14, the “IC50 SARS-CoV2 PsV (IgG)” value in test [1] was above 50 µg/mL. The “Median IC50” value in test [2] was > 50 µg/mL and > 333 nM.

B15: mAb 52 (antibody, V domains shown)
VH: QVQLVQSGAEVKKPGSSVKVSCKASGYTFTSYGISWVRQAPGQGLEWMGGIIPMFGTTNYAQKFQGRVTITADKSTSTAYMELSSLRSEDTAVYYCARDRGDTIDYWGQGTLVTVSS
VL: DIQMTQSPSSLSASVGDRVTITCRASQGISNNLNWYQQKPGKAPKLLIYAASSLESGVPSRFSGSGSGTDFTLTISSLQPEDFATYYCQQGNGFPLTFGPGTKVDIKR
notes: also called IgG 52; Antibody 52
As to B15, in test [3], the “IC50 SARS-CoV2/SB2-P4-PB (IgG)” value turned out to be 6.2 µg/mL. Also, the “IC50 SARS-CoV2 PsV (IgG)” value in test [1] is 0.55 µg/mL. For the same molecule, the “Median IC50” value in test [2] was 0.61 µg/mL and 4.1 nM.

B16: mAb 368 (antibody, V domains shown)
VH: QVQLVQSGAEVKKPGSSVKVSCKASGYTFTSYDINWVRQAPGQGLEWMGAIMPMFGTANYAQKFQGRVTITADESTSTAYMELSSLRSEDTAVYYCARGSSGYYYGWGQGTLVTVSS
VL: not shown
On to B16, for which the “IC50 SARS-CoV2 PsV (IgG)” value in test [1] was above 50 µg/mL. In addition, in test [2], the “Median IC50” value is > 50 µg/mL and > 333 nM.

B17: mAb 178 (antibody, V domains shown)
VH: QVQLVQSGAEVKKPGASVKVSCKASGYTFTDYHMHWVRQAPGQGLEWMGWINPNSGGTNYAQKFQGRVTMTRDTSTSTVYMELSSLRSEDTAVYYCARDISSWYEITKFDPWGQGTLVTVSS
VL: EIVMTQSPATLSVSPGERATLSCKASQSVSGTYLAWYQQKPGQAPRLLIYGASTRATGIPARFSGSGSGTEFTLTISSLQSEDFAVYYCLQTHSYPPTFGQGTKVEIKR
notes: also called IgG 178; Antibody 178
Consider B17, for which, in test [1], the “IC50 SARS-CoV2 PsV (IgG)” value was above 50 µg/mL. Further, the “Median IC50” value in test [2] is > 50 µg/mL and > 333 nM.

B18: mAb 120 (antibody, V domains shown)
VH: QVQLVQSGAEVKKPGASVKVSCKASGYTFTSYDINWVRQAPGQGLEWMGMIDPSGGSTSYAQKFQGRVTMTRDTSTSTVYMELSSLRSEDTAVYYCAKDFGGGTRYDYWYFDLWGRGTLVTVSS
VL: EIVMTQSPATLSVSPGERATLSCRASQSVSSRYLAWYQQKPGQAPRLLIYGASTRATGIPARFSGSGSGTEFTLTISSLQSEDFAVYYCQQYYTTPRTFGQGTRLEIKR
notes: also called IgG 120; Antibody 120
Consider B18, for which the “IC50 SARS-CoV2 PsV (IgG)” value in test [1] is above 50 µg/mL. The “Median IC50” value in test [2] is > 50 µg/mL and > 333 nM.
